According to the Human Domainome abundance scans (Beltran et al. 2025):
± gives the uncertainty stated by the source.

B1: POU domain, class 3, transcription factor 2, residues 356 to 411; numbered along this chain, P20265 (parent)
chain: KKRTSIEVSVKGALESHFLKCPKPSAQEITSLADSLQLEKEVVRVWFCNRRQKEKR

Variants of: B1
Test: abundance fitness (aPCA) (normalised: wild type 0, dead -1); higher = more abundant; growth selection in yeast, the domain comes from the species named
Conditions: Homo sapiens
Variant F18D has an abundance fitness of -0.875 ± 0.17.
Work on E39S yielded an abundance fitness of -0.039 ± 0.076.
For K53R, the abundance fitness was -0.457 ± 0.31.
In the case of K20H, the abundance fitness is reported as -0.463 ± 0.27.
With K20N the abundance fitness was -0.262 ± 0.13.
Variant H17T has an abundance fitness of -0.1 ± 0.11.
For Q27A, the abundance fitness was -0.126 ± 0.085.
D34S showed an abundance fitness of -0.041 ± 0.08.
H17D showed an abundance fitness of -0.833 ± 0.22.
Work on L32A yielded an abundance fitness of -0.994 ± 0.18.
Work on S16Q yielded an abundance fitness of 0.073 ± 0.15.
Variant A13R has an abundance fitness of 0.083 ± 0.08.
L19G showed an abundance fitness of -0.245 ± 0.076.
Variant R51L has an abundance fitness of 0.061 ± 0.077.
For E41F, the abundance fitness was -0.723 ± 0.22.
In the case of Q27Y, the abundance fitness is reported as -0.268 ± 0.14.
Variant I29E has an abundance fitness of -0.763 ± 0.31.
Work on K20D yielded an abundance fitness of -0.46 ± 0.2.
Work on L36M yielded an abundance fitness of -0.564 ± 0.14.
For E41C, the abundance fitness was -0.558 ± 0.12.
Work on W46R yielded an abundance fitness of -0.805 ± 0.084.
Variant K40M has an abundance fitness of -0.013 ± 0.17.
K23N showed an abundance fitness of 0.105 ± 0.14.
K20R showed an abundance fitness of -0.223 ± 0.076.
P22T showed an abundance fitness of -0.313 ± 0.1.
Variant V42I has an abundance fitness of -0.204 ± 0.11.
In the case of E39G, the abundance fitness is reported as -0.324 ± 0.088.
I6Q gave an abundance fitness of -0.226 ± 0.19.
R50N gave an abundance fitness of -0.907 ± 0.39.
With L38A the abundance fitness was -0.713 ± 0.11.
Work on V45G yielded an abundance fitness of -0.048 ± 0.092.
P22R showed an abundance fitness of -0.367 ± 0.08.
For A13Q, the abundance fitness was 0.011 ± 0.14.
Q37A gave an abundance fitness of -0.054 ± 0.071.
Work on L36A yielded an abundance fitness of -0.929 ± 0.1.
N49W gave an abundance fitness of -0.18 ± 0.083.
In the case of K40N, the abundance fitness is reported as 0.021 ± 0.19.
Work on K23S yielded an abundance fitness of 0.024 ± 0.083.
Variant K2S has an abundance fitness of -0.18 ± 0.12.
L32V showed an abundance fitness of -0.303 ± 0.096.
Variant K11P has an abundance fitness of -0.269 ± 0.13.
In the case of K40G, the abundance fitness is reported as -0.085 ± 0.078.
In the case of V42H, the abundance fitness is reported as 0.081 ± 0.22.
With K20V the abundance fitness was -0.323 ± 0.096.
Variant S5V has an abundance fitness of 0.229 ± 0.096.
A26L gave an abundance fitness of -0.179 ± 0.089.
With K11T the abundance fitness was -0.027 ± 0.11.
L38P showed an abundance fitness of -0.969 ± 0.17.
With A26H the abundance fitness was -0.059 ± 0.16.
E15A gave an abundance fitness of -0.88 ± 0.15.
For Q52P, the abundance fitness was -0.956 ± 0.17.
Work on Q52D yielded an abundance fitness of 0.015 ± 0.18.
For K2F, the abundance fitness was -0.199 ± 0.2.
In the case of S25C, the abundance fitness is reported as -0.231 ± 0.14.
In the case of R56L, the abundance fitness is reported as 0.131 ± 0.14.
Variant S5Q has an abundance fitness of 0.095 ± 0.14.
With S5G the abundance fitness was 0.024 ± 0.072.
For T30W, the abundance fitness was -0.324 ± 0.082.
L36K gave an abundance fitness of -0.868 ± 0.16.
G12T showed an abundance fitness of 0.21 ± 0.093.
Variant Q52T has an abundance fitness of 0.039 ± 0.12.
E7M showed an abundance fitness of 0.032 ± 0.096.
Work on K11V yielded an abundance fitness of 0.026 ± 0.084.
With K40Q the abundance fitness was 0.078 ± 0.12.
With A13E the abundance fitness was -0.067 ± 0.1.
Work on I29K yielded an abundance fitness of -0.994 ± 0.36.
Variant I29F has an abundance fitness of -0.786 ± 0.2.
Work on P22D yielded an abundance fitness of -0.122 ± 0.12.
Variant W46Y has an abundance fitness of -0.648 ± 0.24.
With E7T the abundance fitness was 0.221 ± 0.06.
With K1S the abundance fitness was -0.273 ± 0.15.
A13I showed an abundance fitness of -0.184 ± 0.15.
In the case of E41W, the abundance fitness is reported as -0.494 ± 0.11.
With E7V the abundance fitness was -0.21 ± 0.071.
Variant E7D has an abundance fitness of 0.066 ± 0.077.
Work on D34Y yielded an abundance fitness of 0.184 ± 0.2.
With T4F the abundance fitness was 0.126 ± 0.23.
L38E gave an abundance fitness of -0.696 ± 0.14.
In the case of R51M, the abundance fitness is reported as -0.156 ± 0.1.
C21E gave an abundance fitness of -0.072 ± 0.13.
P22E gave an abundance fitness of -0.246 ± 0.11.
With N49H the abundance fitness was -0.08 ± 0.19.
Work on T30L yielded an abundance fitness of -0.091 ± 0.083.
For S5F, the abundance fitness was -0.053 ± 0.18.
Work on R56S yielded an abundance fitness of -0.194 ± 0.14.
In the case of R51H, the abundance fitness is reported as -0.098 ± 0.17.
With T4W the abundance fitness was -0.546 ± 0.12.
K20I showed an abundance fitness of -0.215 ± 0.13.
Variant C48T has an abundance fitness of -0.105 ± 0.14.
In the case of E39A, the abundance fitness is reported as -0.224 ± 0.11.
K55F showed an abundance fitness of -0.167 ± 0.14.
With R44T the abundance fitness was -0.08 ± 0.11.
A26M showed an abundance fitness of 0.03 ± 0.13.
Work on C48K yielded an abundance fitness of 0.101 ± 0.16.
R56P gave an abundance fitness of -0.58 ± 0.29.
For E54Y, the abundance fitness was -0.337 ± 0.17.
E41D showed an abundance fitness of -0.114 ± 0.14.
Q27H gave an abundance fitness of 0.092 ± 0.15.
Variant E28W has an abundance fitness of -0.505 ± 0.14.
E41Y showed an abundance fitness of -0.489 ± 0.18.
V42S gave an abundance fitness of -0.179 ± 0.11.
Q27W gave an abundance fitness of -0.292 ± 0.089.
Work on L32D yielded an abundance fitness of -1.03 ± 0.25.
For P24S, the abundance fitness was -0.998 ± 0.18.
K2D gave an abundance fitness of 0.028 ± 0.18.
Work on Q37Y yielded an abundance fitness of -0.353 ± 0.14.
S9T gave an abundance fitness of 0.09 ± 0.091.
Variant K11M has an abundance fitness of -0.041 ± 0.12.
With K55H the abundance fitness was -0.274 ± 0.25.
In the case of A33H, the abundance fitness is reported as -0.789 ± 0.25.
Work on R3N yielded an abundance fitness of 0.13 ± 0.16.
Variant R56W has an abundance fitness of -0.234 ± 0.14.
In the case of R50V, the abundance fitness is reported as -1 ± 0.13.
V10K gave an abundance fitness of 0.041 ± 0.12.
Variant V45S has an abundance fitness of 0.097 ± 0.076.
For Q27S, the abundance fitness was -0.079 ± 0.087.
For E54W, the abundance fitness was -0.581 ± 0.12.
With V10R the abundance fitness was -0.266 ± 0.09.
For R44F, the abundance fitness was -0.481 ± 0.089.
Work on S35L yielded an abundance fitness of -0.065 ± 0.088.
With W46E the abundance fitness was -0.946 ± 0.17.
A33I showed an abundance fitness of -1.03 ± 0.42.
A33N gave an abundance fitness of -0.963 ± 0.33.
With L19I the abundance fitness was -0.113 ± 0.15.
With A26C the abundance fitness was -0.244 ± 0.13.
L32G gave an abundance fitness of -0.834 ± 0.11.
With L14H the abundance fitness was -0.762 ± 0.2.
Work on P24M yielded an abundance fitness of -0.628 ± 0.14.
Q52S showed an abundance fitness of -0.135 ± 0.085.
L32P showed an abundance fitness of -0.944 ± 0.28.
Variant L36C has an abundance fitness of -0.428 ± 0.17.
Variant L32M has an abundance fitness of -0.08 ± 0.15.
With F47K the abundance fitness was -0.961 ± 0.21.
For P22Y, the abundance fitness was -0.718 ± 0.16.
Work on V8H yielded an abundance fitness of 0.128 ± 0.15.
For L19C, the abundance fitness was -0.114 ± 0.13.
For E15Y, the abundance fitness was -0.777 ± 0.21.
E15G gave an abundance fitness of -0.885 ± 0.11.
In the case of Q37L, the abundance fitness is reported as -0.245 ± 0.07.
For I29T, the abundance fitness was -0.593 ± 0.17.
E54Q gave an abundance fitness of -0.177 ± 0.16.
Work on R51N yielded an abundance fitness of -0.402 ± 0.19.
For V43Y, the abundance fitness was -0.955 ± 0.2.
For A13W, the abundance fitness was -0.422 ± 0.11.
In the case of K11L, the abundance fitness is reported as 0.03 ± 0.087.
For S25V, the abundance fitness was -0.725 ± 0.094.
In the case of V42Y, the abundance fitness is reported as 0.05 ± 0.2.
K55D showed an abundance fitness of 0.036 ± 0.16.
A26F gave an abundance fitness of -0.312 ± 0.18.
E7W gave an abundance fitness of -0.242 ± 0.1.
Work on R44L yielded an abundance fitness of -0.407 ± 0.068.
R56M gave an abundance fitness of 0.157 ± 0.18.
With D34R the abundance fitness was 0.244 ± 0.073.
For S5M, the abundance fitness was -0.018 ± 0.12.
Variant L36I has an abundance fitness of -0.7 ± 0.16.
L19V gave an abundance fitness of -0.056 ± 0.075.
Variant E39K has an abundance fitness of -0.121 ± 0.13.
Variant K53C has an abundance fitness of 0.025 ± 0.47.
S16M gave an abundance fitness of -0.06 ± 0.12.
In the case of T30Y, the abundance fitness is reported as -0.285 ± 0.11.
S35A showed an abundance fitness of -0.086 ± 0.11.
With C21G the abundance fitness was -0.521 ± 0.081.
With V45C the abundance fitness was -0.294 ± 0.12.
For R56C, the abundance fitness was 0.045 ± 0.24.
R50H gave an abundance fitness of -0.583 ± 0.2.
E28S gave an abundance fitness of -0.455 ± 0.1.
For K55L, the abundance fitness was -0.087 ± 0.084.
